Earlier results as cited in publication PMC6611495.

Target: protective antigen (PA) (Bacillus anthracis) (UniProt P13423)

In the case of rCMG2 (from UniProt P58335), the Kd is given as 0.4 nM.
